Measured values taken from PMC6435465.

Assays:
[1] = biological target: YabJ from Staphylococcus aureus Mu50 (SAV0497), native recombinant (Staphylococcus aureus Mu50); test: SDS/PAGE; 12% polyacrylamide gel, samples treated with 1% SDS and 5% 2-mercaptoethanol at 100°C for 5 min; trimer band at 50 kDa, monomer band at 16 kDa
[2] = biological target: YabJ from Staphylococcus aureus Mu50 (SAV0497), native recombinant (Staphylococcus aureus Mu50); test: crystal structure; 1.75 Å, space group P2(1), six molecules per asymmetric unit; crystals from 25% PEG3350, 100 mM Tris/HCl pH 8.5, 293 K; interfaces calculated with PISA
[3] = biological target: YabJ from Staphylococcus aureus Mu50 (SAV0497), native recombinant (Staphylococcus aureus Mu50); test: SEC; size-exclusion chromatography of native and chemically treated SAYabJ; excess HOCl, DTT and H2O2 removed by dialysis beforehand; Superdex 75 (10/300 GL), 50 mM Tris/HCl pH 7.5, 200 mM NaCl named for the purification
[4] = biological target: chlorinated and reduced SAYabJ (HOCl-treated, then DTT-reduced YabJ from S. aureus Mu50) (Staphylococcus aureus Mu50); test: SDS/PAGE; 12% polyacrylamide gel, samples treated with 1% SDS and 5% 2-mercaptoethanol at 100°C for 5 min; trimer band at 50 kDa, monomer band at 16 kDa

Substance | stoichiometry N [1] | stoichiometry N [2] | stoichiometry N [3] | stoichiometry N [4]
YabJ from Staphylococcus aureus Mu50 (SAV0497), native recombinant (natural protein) | 3 | 3 | 3 | –
chlorinated and reduced SAYabJ (HOCl-treated, then DTT-reduced YabJ from S. aureus Mu50) (natural protein) | – | – | – | 3
